Results: article PMC6259326, “Study on Suitability of KOD DNA Polymerase for Enzymatic Production of Artificial Nucleic Acids Using Base/Sugar Modified Nucleoside Triphosphates” (Molecules, 2010)

What was measured:
[1] = substrate: Nc1ccn([C@H]2C[C@H](O)[C@@H](COP(=O)(O)OP(=O)(O)OP(=O)(O)O)O2)c(=O)n1; test: purified protein; details: apparent Km, 40 °C, primer P1 / template T1, misinsertion, 0.0125 U/μL enzyme
[2] = substrate: Cc1cn([C@H]2C[C@H](O)[C@@H](COP(=O)(O)OP(=O)(O)OP(=O)(O)O)O2)c(=O)[nH]c1=O; test: single nucleotide primer extension, 6-FAM primer, denaturing PAGE; format: biochemical, Thermococcus litoralis; details: apparent Km, 40 °C, primer P1 / template T1, correct insertion, 0.0125 U/μL enzyme
Excerpt: (§1) single nucleotide primer extension, 6-FAM primer, denaturing PAGE on Vent(exo-) DNA polymerase

[3] = substrate: NCCCCCCNC(=O)Cc1cn([C@@H]2O[C@H](COP(=O)(O)OP(=O)(O)OP(=O)(O)O)[C@@H](O)[C@@H]2O)c(=O)[nH]c1=O; test: as above; format: biochemical, Thermococcus litoralis; details: apparent Km, 40 °C, primer P1 / template T1, correct insertion, 0.0125 U/μL enzyme
Excerpt: as §1

[4] = substrate: NCCCCCCNC(=O)Cc1cn([C@H]2C[C@H](O)[C@@H](COP(=O)(O)OP(=O)(O)OP(=O)(O)O)O2)c(=O)[nH]c1=O; test: as above; format: biochemical, Thermococcus litoralis; details: apparent Km, 40 °C, primer P1 / template T1, correct insertion, 0.0125 U/μL enzyme
Excerpt: as §1

B1: Vent(exo-) DNA polymerase (Thermococcus litoralis; D141A/E143A) (protein)
chain 1: MILDTDYITKDGKPIIRIFKKENGEFKIELDPHFQPYIYALLKDDSAIEEIKAIKGERHGKTVRVLDAVKVRKKFLGREVEVWKLIFEHPQDVPAMRGKIREHPAVVDIYEYDIPFAKRYLIDKGLIPMEGDEELKLLAFAIATFYHEGDEFGKGEIIMISYADEEEARVITWKNIDLPYVDVVSNEREMIKRFVQVVKEKDPDVIITYNGDNFDLPYLIKRAEKLGVRLVLGRDKEHPEPKIQRMGDSFAVEIKGRIHFDLFPVVRRTINLPTYTLEAVYEAVLGKTKSKLGAEEIAAIWETEESMKKLAQYSMEDARATYELGKEFFPMEAELAKLIGQSVWDVSRSSTGNLVEWYLLRVAYARNELAPNKPDEEEYKRRLRTTYLGGYVKEPEKGLWENIIYLDFRSLYPSIIVTHNVSPDTLEKEGCKNYDVAPIVGYRFCKDFPGFIPSILGDLIAMRQDIKKKMKSTIDPIEKKMLDYRQRAIKLLAN
chain 2: SYYGYMGYPKARWYSKECAESVTAWGRHYIEMTIREIEEKFGFKVLYAD
chain 3: TDGFYATIPGEKPELIKKKAKEFLNYINSKLPGLLELEYEGFYLRGFFVTKKRYAVIDEEGRITTRGLEVVRRDWSEIAKETQAKVLEAILKEGSVEKAVEVVRDVVEKIAKYRVPLEKLVIHEQITRDLKDYKAIGPHVAIAKRLAARGIKVKPGTIISYIVLKGSGKISDRVILLTEYDPRKHKYDPDYYIENQVLPAVLRILEAFGYRKEDLRYQSSKQTGLDAWLKR
notes: commercial exonuclease-deficient enzyme (New England Biolabs), mature intein-free form
- Km [1]: 1700 µM
- kcat [1]: 0.00233 s⁻¹
- Km [2]: 3 µM
- kcat [2]: 0.00567 s⁻¹
- Km [3]: 4.4 µM
- kcat [3]: 0.000817 s⁻¹
- Km [4]: 2.7 µM
- kcat [4]: 0.00483 s⁻¹
